Source: US9308238B2, “Compositions and methods for modulating EMT and uses thereof” (Whitehead Institute for Biomedical Research, priority 2010, dated 2016)

Assays:
Type in all cases: cell-based, human
HTwist and MSP cells = assay: Boyden chamber migration assay, HTwist and MSP cells
Procedure: FIGS. 3A-3E. Autocrine Signaling controls migration and mammosphere formation.
FIGS. 10A-10E. […] (FIG. 10C) Mammosphere assay: HTwist cells were treated daily during mammosphere formation (5 days) with proteins as described in (B); *control vs. single treatment, p<1×10^−5, **single vs. double-treatment, p<0.01, n(mammospheres)/1000 cells, n=6, (FIG. 10D) Migration Assay: HTwist and MSP cells were seeded into Boyden Chambers in the presence of TGF-beta Receptor I inhibitors A83-01 and SB431542 (SB43, both at 10 μM). (FIG. 10E) Mammosphere Assay: HTwist and MSP were treated daily during mammosphere formation (5 days) with BMP4 (0.5 μg/ml), SB431542 (10 μM) or a combination of both, n(mammospheres)/1000 cells, n=6.
Migration and invasion assays. For migration assays, 2×10^4 cells were seeded into 24-well cell culture inserts with 8-μm pores (Boyden Chambers, BD Falcon). For invasion assays, matrigel-coated inserts (BD Falcon) were used. After 12-48 hr, the cells on the upper surface of the filters were removed with a cotton swab. For visualization, cells on lower filter surfaces were fixed and stained with a Diff-Quick staining kit (Dade Behring).

HTwist cells = assay: Boyden chamber migration assay, HTwist cells (single vs combined proteins); settings: DKK1 1 μg/ml, SFRP1, BMP4 0.5 μg/ml
Procedure: Migration and invasion assays. For migration assays, 2×10^4 cells were seeded into 24-well cell culture inserts with 8-μm pores (Boyden Chambers, BD Falcon). […] After 12-48 hr, the cells on the upper surface of the filters were removed with a cotton swab. For visualization, cells on lower filter surfaces were fixed and stained with a Diff-Quick staining kit (Dade Behring).

[1] = system: MSP-RAS primary tumorspheres; assay: Flow cytometry of CD44/CD24 in MSP-RAS primary tumorspheres; settings: control tumorspheres 6.4%
Procedure: FIGS. 4A-4G. Autocrine Signaling controls tumorigenicity and metastasis of MSP-RAS cells. (FIG. 4A) Migration assay: RAS-transformed MSP (MSP-RAS) were seeded in Boyden Chamber migration assays and recombinant SFRP1 (1 μg/ml) and BMP4 protein (0.5 μg/ml) were added; *control vs. single treatment, p<1×10^−8, **single vs. double treatment with SFRP1 and BMP4 (S+B), p<1×10^−4, n=3. […] (FIG. 4E) Lung metastasis: fluorescence microscopy images of the major left lung lobe showing GFP-expressing metastatic nodules and quantification of the number of lung surface metastases; *control vs. SFRP1 treatment, p<0.05, **SFRP1 vs. BMP4 or double treatment (S+B), p<0.05, n=5 mice/group. (FIG. 4F) Liver metastasis: fluorescence microscopy images of the liver surface showing GFP-expressing micro-metastatic nodules after implantation of cells as described in (D) and quantification: 5 fields of liver surface were counted per mouse, *control vs. single treatment, p<0.05, **single vs. double treatment (S+B), p<0.05, n=5 mice/group. […]
Fluorescent activated cell sorting (FACS) and flow cytometry. […] Samples were sorted on a BD FACSAria SORP and analyzed on a BD LSRII using BD FACSDiva Software (BD Biosciences).

B1: SFRP1: Recombinant human SFRP1 protein (R&D Systems), secreted decoy receptor binding canonical and non-canonical Wnt ligands (protein, UniProt Q8N474 32-314, looked up)
Secreted frizzled-related …: SEYDYVSFQSDIGPYQSGRFYTKPPQCVDIPADLRLCHNVGYKKMVLPNLLEHETMAEVKQQASSWVPLLNKNCHAGTQVFLCSLFAPVCLDRPIYPCRWLCEAVRDSCEPVMQFFGFYWPEMLKCDKFPEGDVCIAMTPPNATEASKPQGTTVCPPCDNELKSEAIIEHLCASEFALRMKIKEVKKENGDKKIVPKKKKPLKLGPIKKKDLKKLVLYLKNGADCPCHQLDNLSHHFLIMGRKVKSQYLLTAIHKWDKKNKEFKNFMKKMKNHECPTFQSVFK
- reduction of migration (HTwist and MSP cells; at the highest concentration): 20 fold
- reduction of migration, single vs combined proteins (HTwist cells): 5 fold
- CD24-positive cells in primary tumorspheres [1]: 40%

B2: BMP4: Recombinant BMP4 protein obtained from Stemgent (protein, UniProt P12644 293-408, looked up)
Bone morphogenetic protein 4: SPKHHSQRARKKNKNCRRHSLYVDFSDVGWNDWIVAPPGYQAFYCHGDCPFPLADHLNSTNHAIVQTLVNSVNSSIPKACCVPTELSAISMLYLDEYDKVVLKNYQEMVVEGCGCR
- maximum reduction of migration (HTwist and MSP cells; HTwist or MSP cells): ≤ 2 fold
- reduction of migration, single vs combined proteins (HTwist cells): 2 fold
- CD24-positive cells in primary tumorspheres [1]: 40%
